The supplement of paper PMC7125110
± gives the standard error. This sample holds only a part of the variants without activity.

B1: glmS ribozyme (parent)
chain: AUAAAAGCGCCAGAACUACAGAAAUGUAGUUGACGAGGAGGAGGUUUAUCGAAUUUUCGGCGGAUGCCUCCAAA

How the values were obtained:
Conditions in all cases: with glucosamine-6-phosphate
glucosamine-6-phosphate [1] = variants of: B1; test: self-cleavage kobs at 640 uM GlcN6P; higher = faster cleavage; RNA array
Summary of the method: (§1)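 Tiles bearing barcoded ribozyme variants, transcribed in situ by E. coli RNA polymerase on sequenced MiSeq chips, were imaged over ~14 h at 37 °C using a hybridised Cy3 probe. Glucosamine-6-phosphate was supplied at 40 μM to 10 mM in HEPES/KCl/Mg(OAc)2 buffer. kobs came from one- or two-exponential decay fits to normalised per-tile medians, and weighted Michaelis–Menten fits then provided kcat and KM.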

glucosamine-6-phosphate [2] = variants of: B1; test: self-cleavage kobs at 160 uM GlcN6P; higher = faster cleavage; RNA array
Summary of the method: as §1

glucosamine-6-phosphate [3] = variants of: B1; test: self-cleavage kobs at 2500 uM GlcN6P; higher = faster cleavage; RNA array
Summary of the method: as §1

glucosamine-6-phosphate [4] = variants of: B1; test: self-cleavage kobs at 10000 uM GlcN6P; higher = faster cleavage; RNA array
Summary of the method: as §1

Variant | self-cleavage kobs at 640 uM GlcN6P (glucosamine-6-phosphate [1]) | self-cleavage kobs at 160 uM GlcN6P (glucosamine-6-phosphate [2]) | self-cleavage kobs at 2500 uM GlcN6P (glucosamine-6-phosphate [3]) | self-cleavage kobs at 10000 uM GlcN6P (glucosamine-6-phosphate [4])
G9A C10G G29U G62A | < 1e-05 s⁻¹ | – | – | –
G7U C61U C68G | 0.00114 ± 0.00049 s⁻¹ | – | – | –
G9A A14C A36G G37C A39U | < 1e-05 s⁻¹ | – | – | –
G7A A12C A42C U49C | < 1e-05 s⁻¹ | – | – | –
U47C U49A | – | < 1e-05 s⁻¹ | < 1e-05 s⁻¹ | < 1e-05 s⁻¹
U49G G63U | – | < 1e-05 s⁻¹ | < 1e-05 s⁻¹ | < 1e-05 s⁻¹
C50A C67U C71G | 0.000107 ± 2.5e-05 s⁻¹ | 4.46e-05 ± 2.1e-05 s⁻¹ | – | –
G44C C58A | < 1e-05 s⁻¹ | < 1e-05 s⁻¹ | < 1e-05 s⁻¹ | < 1e-05 s⁻¹
G43U U69C C70G | < 1e-05 s⁻¹ | < 1e-05 s⁻¹ | – | –
A42U U45C A52G G59U | – | < 1e-05 s⁻¹ | – | –
A39C G51U C71A | – | < 1e-05 s⁻¹ | – | –
G37U G51C A52U G63U | – | < 1e-05 s⁻¹ | – | –
A39G G63U | < 1e-05 s⁻¹ | < 1e-05 s⁻¹ | < 1e-05 s⁻¹ | < 1e-05 s⁻¹
A42G A48G U54A | – | < 1e-05 s⁻¹ | – | –
A6G G9U A64G | < 1e-05 s⁻¹ | – | – | –
G38C U45A | < 1e-05 s⁻¹ | < 1e-05 s⁻¹ | – | –
A39U G41A G62U | – | < 1e-05 s⁻¹ | < 1e-05 s⁻¹ | –
A6G U31C G59A | < 1e-05 s⁻¹ | – | – | –
A6U G41A G44C C67G C70G | < 1e-05 s⁻¹ | – | < 1e-05 s⁻¹ | –
U57G U69G | 0.000113 ± 2.8e-05 s⁻¹ | 8.11e-05 ± 1.7e-05 s⁻¹ | 4.87e-05 ± 1.6e-05 s⁻¹ | –

Variant | self-cleavage kobs at 640 uM GlcN6P (glucosamine-6-phosphate [1]) | self-cleavage kobs at 160 uM GlcN6P (glucosamine-6-phosphate [2]) | self-cleavage kobs at 2500 uM GlcN6P (glucosamine-6-phosphate [3]) | self-cleavage kobs at 10000 uM GlcN6P (glucosamine-6-phosphate [4])
G9C A64U G66C C70U C71U | < 1e-05 s⁻¹ | – | – | –
G38C G59C C67G | – | < 1e-05 s⁻¹ | < 1e-05 s⁻¹ | –
G7A G40A A42C C67G | < 1e-05 s⁻¹ | – | < 1e-05 s⁻¹ | –
G7U A39C U57G G63C C68U | < 1e-05 s⁻¹ | – | < 1e-05 s⁻¹ | –
G7U G13A G29U | < 1e-05 s⁻¹ | – | < 1e-05 s⁻¹ | < 1e-05 s⁻¹
G7U U30C C61A | < 1e-05 s⁻¹ | – | – | –
G43U U57A | – | < 1e-05 s⁻¹ | < 1e-05 s⁻¹ | –
A6G C50G G51A | < 1e-05 s⁻¹ | – | < 1e-05 s⁻¹ | –
A6G C50G A52U G59U | < 1e-05 s⁻¹ | – | – | –
A6G C16A A52C | < 1e-05 s⁻¹ | – | < 1e-05 s⁻¹ | –
A6U C10G A53C G62U | < 1e-05 s⁻¹ | – | < 1e-05 s⁻¹ | –
A6G C16A G44U U45A | < 1e-05 s⁻¹ | – | < 1e-05 s⁻¹ | –
U55G G62C | < 1e-05 s⁻¹ | < 1e-05 s⁻¹ | < 1e-05 s⁻¹ | < 1e-05 s⁻¹
U45C U47C G62U C68U | – | < 1e-05 s⁻¹ | – | –
G38U U65G C70U | < 1e-05 s⁻¹ | < 1e-05 s⁻¹ | – | –
G7C A14C A52U | < 1e-05 s⁻¹ | – | < 1e-05 s⁻¹ | –
G38A A42G G60A | – | < 1e-05 s⁻¹ | – | –
G59U C67U U69A | – | 6.91e-05 ± 2.5e-05 s⁻¹ | – | –
G7C G9C | < 1e-05 s⁻¹ | – | < 1e-05 s⁻¹ | –
C58A U69A | 9.55e-05 ± 2.9e-05 s⁻¹ | 4.65e-05 ± 2.2e-05 s⁻¹ | 0.000101 ± 3.1e-05 s⁻¹ | –

Variant | self-cleavage kobs at 640 uM GlcN6P (glucosamine-6-phosphate [1]) | self-cleavage kobs at 160 uM GlcN6P (glucosamine-6-phosphate [2]) | self-cleavage kobs at 2500 uM GlcN6P (glucosamine-6-phosphate [3]) | self-cleavage kobs at 10000 uM GlcN6P (glucosamine-6-phosphate [4])
C50U G51C | < 1e-05 s⁻¹ | < 1e-05 s⁻¹ | < 1e-05 s⁻¹ | –
A39G U65C | 0.000513 ± 0.00015 s⁻¹ | 5.26e-05 ± 2.5e-05 s⁻¹ | 0.00163 ± 0.0005 s⁻¹ | –
C50G U54A U65A | – | 0.00014 ± 3.8e-05 s⁻¹ | 5.15e-05 ± 2e-05 s⁻¹ | 5.29e-05 ± 1.5e-05 s⁻¹
A6U U55G A64C | < 1e-05 s⁻¹ | – | – | –
G41C A48G G63U | < 1e-05 s⁻¹ | < 1e-05 s⁻¹ | < 1e-05 s⁻¹ | –
U47G U54C | 0.0026 ± 0.00053 s⁻¹ | 0.000851 ± 0.00032 s⁻¹ | 0.00468 ± 0.00094 s⁻¹ | 0.0139 ± 0.0032 s⁻¹
G44C C50U U54C | < 1e-05 s⁻¹ | < 1e-05 s⁻¹ | – | –
G51U C61A C71A | < 1e-05 s⁻¹ | < 1e-05 s⁻¹ | < 1e-05 s⁻¹ | –
A3C U45A U65A | 0.00508 ± 0.0012 s⁻¹ | – | 0.00657 ± 0.001 s⁻¹ | –
G40A C67G | < 1e-05 s⁻¹ | < 1e-05 s⁻¹ | – | –
G7A G38A G63U C70G | 0.000112 ± 3.6e-05 s⁻¹ | – | – | –
A6G A42C U56A C61G | < 1e-05 s⁻¹ | – | – | –
G41C G51C A64C | – | < 1e-05 s⁻¹ | – | –
A6G G41C A42C | < 1e-05 s⁻¹ | – | < 1e-05 s⁻¹ | –
C8U G35A G60C U65G | < 1e-05 s⁻¹ | – | – | –
C8A A36C C68U | < 1e-05 s⁻¹ | – | – | –
G7A G37C A39U U47G | < 1e-05 s⁻¹ | – | – | –
U54A G66A | 0.00513 ± 0.00085 s⁻¹ | 0.00093 ± 0.00023 s⁻¹ | 0.00986 ± 0.0017 s⁻¹ | –
G7U U54A | < 1e-05 s⁻¹ | – | < 1e-05 s⁻¹ | < 1e-05 s⁻¹
